Experimental data: patent US20160272683A1 (Novo Nordisk, published 2016)
Numbered stars: 1 amine (or outer) side, 2 acyl side, 3 side chain; on linkers, the order of the positions; unused ones are H or OH. Ends that are not written are not given here. * marks the point of attachment. C20 diacid = O=C(O)CCCCCCCCCCCCCCCCCCC(=O)*; C18 diacid = O=C(O)CCCCCCCCCCCCCCCCC(=O)*; γGlu = O=C(O)[C@H](CCC(=O)[*:2])N[*:1]; C14 diacid = O=C(O)CCCCCCCCCCCCC(=O)*

T1: human amylin 3(a) receptor (human calcitonin receptor co-expressed with RAMP-3) (human, UniProt P30988 25-474; O60896 24-148, limits assumed)
T1 sequence (looked up) 1: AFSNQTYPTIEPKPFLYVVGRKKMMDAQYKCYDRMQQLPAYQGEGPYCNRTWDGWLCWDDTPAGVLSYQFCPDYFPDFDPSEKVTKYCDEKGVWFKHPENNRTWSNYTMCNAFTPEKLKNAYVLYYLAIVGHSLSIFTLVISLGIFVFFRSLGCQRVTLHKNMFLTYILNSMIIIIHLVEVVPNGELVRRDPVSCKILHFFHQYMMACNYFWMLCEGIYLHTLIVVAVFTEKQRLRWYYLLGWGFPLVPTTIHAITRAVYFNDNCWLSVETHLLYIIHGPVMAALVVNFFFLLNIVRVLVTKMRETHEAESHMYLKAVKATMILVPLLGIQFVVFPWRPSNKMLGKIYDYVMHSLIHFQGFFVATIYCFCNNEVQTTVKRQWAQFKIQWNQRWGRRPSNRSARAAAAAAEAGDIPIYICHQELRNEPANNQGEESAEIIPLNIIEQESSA
T1 sequence (looked up) 2: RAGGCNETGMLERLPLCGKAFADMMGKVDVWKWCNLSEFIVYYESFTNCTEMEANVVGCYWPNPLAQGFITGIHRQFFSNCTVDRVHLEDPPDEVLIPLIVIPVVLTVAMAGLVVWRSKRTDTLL

T2: human calcitonin receptor (human, UniProt P30988 25-474)
T2 sequence (looked up): T1 sequence (looked up) 1

B1: [N-terminal(C18 diacid), 8L]mimylin (peptide)
peptide: {C18 diacid}-EASELSTLALGRLSAELHELATLPRTETGPESP-NH2
SMILES: CC(C)C[C@H](NC(=O)[C@H](C)NC(=O)[C@H](CC(C)C)NC(=O)[C@@H](NC(=O)[C@H](CO)NC(=O)[C@H](CC(C)C)NC(=O)[C@H](CCC(=O)O)NC(=O)[C@H](CO)NC(=O)[C@H](C)NC(=O)[C@H](CCC(=O)O)NC(=O)CCCCCCCCCCCCCCCCC(=O)O)[C@@H](C)O)C(=O)NCC(=O)N[C@@H](CCCNC(=N)N)C(=O)N[C@@H](CC(C)C)C(=O)N[C@@H](CO)C(=O)N[C@@H](C)C(=O)N[C@@H](CCC(=O)O)C(=O)N[C@@H](CC(C)C)C(=O)N[C@@H](Cc1c[nH]cn1)C(=O)N[C@@H](CCC(=O)O)C(=O)N[C@@H](CC(C)C)C(=O)N[C@@H](C)C(=O)N[C@H](C(=O)N[C@@H](CC(C)C)C(=O)N1CCC[C@H]1C(=O)N[C@@H](CCCNC(=N)N)C(=O)N[C@H](C(=O)N[C@@H](CCC(=O)O)C(=O)N[C@H](C(=O)NCC(=O)N1CCC[C@H]1C(=O)N[C@@H](CCC(=O)O)C(=O)N[C@@H](CO)C(=O)N1CCC[C@H]1C(N)=O)[C@@H](C)O)[C@@H](C)O)[C@@H](C)O
B2: [N-terminal(C18 diacid), 6H]mimylin (peptide)
peptide: {C18 diacid}-EASELHTAALGRLSAELHELATLPRTETGPESP-NH2
SMILES: CC(C)C[C@H](NC(=O)[C@H](C)NC(=O)[C@H](C)NC(=O)[C@@H](NC(=O)[C@H](Cc1c[nH]cn1)NC(=O)[C@H](CC(C)C)NC(=O)[C@H](CCC(=O)O)NC(=O)[C@H](CO)NC(=O)[C@H](C)NC(=O)[C@H](CCC(=O)O)NC(=O)CCCCCCCCCCCCCCCCC(=O)O)[C@@H](C)O)C(=O)NCC(=O)N[C@@H](CCCNC(=N)N)C(=O)N[C@@H](CC(C)C)C(=O)N[C@@H](CO)C(=O)N[C@@H](C)C(=O)N[C@@H](CCC(=O)O)C(=O)N[C@@H](CC(C)C)C(=O)N[C@@H](Cc1c[nH]cn1)C(=O)N[C@@H](CCC(=O)O)C(=O)N[C@@H](CC(C)C)C(=O)N[C@@H](C)C(=O)N[C@H](C(=O)N[C@@H](CC(C)C)C(=O)N1CCC[C@H]1C(=O)N[C@@H](CCCNC(=N)N)C(=O)N[C@H](C(=O)N[C@@H](CCC(=O)O)C(=O)N[C@H](C(=O)NCC(=O)N1CCC[C@H]1C(=O)N[C@@H](CCC(=O)O)C(=O)N[C@@H](CO)C(=O)N1CCC[C@H]1C(N)=O)[C@@H](C)O)[C@@H](C)O)[C@@H](C)O
B3: [N-terminal(C18 diacid), 32H]mimylin (peptide)
peptide: {C18 diacid}-EASELSTAALGRLSAELHELATLPRTETGPEHP-NH2
SMILES: CC(C)C[C@H](NC(=O)[C@H](C)NC(=O)[C@H](C)NC(=O)[C@@H](NC(=O)[C@H](CO)NC(=O)[C@H](CC(C)C)NC(=O)[C@H](CCC(=O)O)NC(=O)[C@H](CO)NC(=O)[C@H](C)NC(=O)[C@H](CCC(=O)O)NC(=O)CCCCCCCCCCCCCCCCC(=O)O)[C@@H](C)O)C(=O)NCC(=O)N[C@@H](CCCNC(=N)N)C(=O)N[C@@H](CC(C)C)C(=O)N[C@@H](CO)C(=O)N[C@@H](C)C(=O)N[C@@H](CCC(=O)O)C(=O)N[C@@H](CC(C)C)C(=O)N[C@@H](Cc1c[nH]cn1)C(=O)N[C@@H](CCC(=O)O)C(=O)N[C@@H](CC(C)C)C(=O)N[C@@H](C)C(=O)N[C@H](C(=O)N[C@@H](CC(C)C)C(=O)N1CCC[C@H]1C(=O)N[C@@H](CCCNC(=N)N)C(=O)N[C@H](C(=O)N[C@@H](CCC(=O)O)C(=O)N[C@H](C(=O)NCC(=O)N1CCC[C@H]1C(=O)N[C@@H](CCC(=O)O)C(=O)N[C@@H](Cc1c[nH]cn1)C(=O)N1CCC[C@H]1C(N)=O)[C@@H](C)O)[C@@H](C)O)[C@@H](C)O
B4: [N-terminal(C18 diacid), 23Y]mimylin (peptide)
peptide: {C18 diacid}-EASELSTAALGRLSAELHELATYPRTETGPESP-NH2
SMILES: CC(C)C[C@H](NC(=O)[C@H](C)NC(=O)[C@H](C)NC(=O)[C@@H](NC(=O)[C@H](CO)NC(=O)[C@H](CC(C)C)NC(=O)[C@H](CCC(=O)O)NC(=O)[C@H](CO)NC(=O)[C@H](C)NC(=O)[C@H](CCC(=O)O)NC(=O)CCCCCCCCCCCCCCCCC(=O)O)[C@@H](C)O)C(=O)NCC(=O)N[C@@H](CCCNC(=N)N)C(=O)N[C@@H](CC(C)C)C(=O)N[C@@H](CO)C(=O)N[C@@H](C)C(=O)N[C@@H](CCC(=O)O)C(=O)N[C@@H](CC(C)C)C(=O)N[C@@H](Cc1c[nH]cn1)C(=O)N[C@@H](CCC(=O)O)C(=O)N[C@@H](CC(C)C)C(=O)N[C@@H](C)C(=O)N[C@H](C(=O)N[C@@H](Cc1ccc(O)cc1)C(=O)N1CCC[C@H]1C(=O)N[C@@H](CCCNC(=N)N)C(=O)N[C@H](C(=O)N[C@@H](CCC(=O)O)C(=O)N[C@H](C(=O)NCC(=O)N1CCC[C@H]1C(=O)N[C@@H](CCC(=O)O)C(=O)N[C@@H](CO)C(=O)N1CCC[C@H]1C(N)=O)[C@@H](C)O)[C@@H](C)O)[C@@H](C)O
B5: [N-terminal(C18 diacid), 9L]mimylin (peptide)
peptide: {C18 diacid}-EASELSTALLGRLSAELHELATLPRTETGPESP-NH2
SMILES: CC(C)C[C@H](NC(=O)[C@H](C)NC(=O)[C@@H](NC(=O)[C@H](CO)NC(=O)[C@H](CC(C)C)NC(=O)[C@H](CCC(=O)O)NC(=O)[C@H](CO)NC(=O)[C@H](C)NC(=O)[C@H](CCC(=O)O)NC(=O)CCCCCCCCCCCCCCCCC(=O)O)[C@@H](C)O)C(=O)N[C@@H](CC(C)C)C(=O)NCC(=O)N[C@@H](CCCNC(=N)N)C(=O)N[C@@H](CC(C)C)C(=O)N[C@@H](CO)C(=O)N[C@@H](C)C(=O)N[C@@H](CCC(=O)O)C(=O)N[C@@H](CC(C)C)C(=O)N[C@@H](Cc1c[nH]cn1)C(=O)N[C@@H](CCC(=O)O)C(=O)N[C@@H](CC(C)C)C(=O)N[C@@H](C)C(=O)N[C@H](C(=O)N[C@@H](CC(C)C)C(=O)N1CCC[C@H]1C(=O)N[C@@H](CCCNC(=N)N)C(=O)N[C@H](C(=O)N[C@@H](CCC(=O)O)C(=O)N[C@H](C(=O)NCC(=O)N1CCC[C@H]1C(=O)N[C@@H](CCC(=O)O)C(=O)N[C@@H](CO)C(=O)N1CCC[C@H]1C(N)=O)[C@@H](C)O)[C@@H](C)O)[C@@H](C)O
B6: [N-terminal(C18 diacid), 5H]mimylin (peptide)
peptide: {C18 diacid}-EASEHSTAALGRLSAELHELATLPRTETGPESP-NH2
SMILES: CC(C)C[C@H](NC(=O)[C@H](C)NC(=O)[C@H](C)NC(=O)[C@@H](NC(=O)[C@H](CO)NC(=O)[C@H](Cc1c[nH]cn1)NC(=O)[C@H](CCC(=O)O)NC(=O)[C@H](CO)NC(=O)[C@H](C)NC(=O)[C@H](CCC(=O)O)NC(=O)CCCCCCCCCCCCCCCCC(=O)O)[C@@H](C)O)C(=O)NCC(=O)N[C@@H](CCCNC(=N)N)C(=O)N[C@@H](CC(C)C)C(=O)N[C@@H](CO)C(=O)N[C@@H](C)C(=O)N[C@@H](CCC(=O)O)C(=O)N[C@@H](CC(C)C)C(=O)N[C@@H](Cc1c[nH]cn1)C(=O)N[C@@H](CCC(=O)O)C(=O)N[C@@H](CC(C)C)C(=O)N[C@@H](C)C(=O)N[C@H](C(=O)N[C@@H](CC(C)C)C(=O)N1CCC[C@H]1C(=O)N[C@@H](CCCNC(=N)N)C(=O)N[C@H](C(=O)N[C@@H](CCC(=O)O)C(=O)N[C@H](C(=O)NCC(=O)N1CCC[C@H]1C(=O)N[C@@H](CCC(=O)O)C(=O)N[C@@H](CO)C(=O)N1CCC[C@H]1C(N)=O)[C@@H](C)O)[C@@H](C)O)[C@@H](C)O

Target: T1, human amylin 3(a) receptor (human …)
Assay: cell-based or functional assay

| hAmylin-R funct. EC50 (pM) | Binder |
| --- | --- |
| 9 pM | B1 |
| 8 pM | {C14 diacid-γGlu}-ASELSTAALGRLSAELHELATLPRTETGPESP-NH2 [[N-terminal(C14 diacid-gGlu), des1]mimylin] |
| 15 pM | B2 |
| 20 pM | B3 |
| 9 pM | {C18 diacid}-EASELSTAALGRLSAELHELATLPRTETGSGSP-NH2 [[N-terminal(C18 diacid), 30S, 31G]mimylin] |
| 11 pM | B4 |
| 11 pM | {C20 diacid}-EASELSTAALGRLSAELHELATLPRTETGSGSP-NH2 [[N-terminal(C20 diacid), 30S, 31G]mimylin] |
| 28 pM | B5 |
| 3 pM | EASELSTAALGRLSAELHELATLPRTETGPESP-NH2 [mimylin] |
| 8 pM | B6 |

Target: T2, human calcitonin receptor
Assay: cell-based or functional assay

| hCTR funct. EC50 (pM) | Binder |
| --- | --- |
| 7 pM | B1 |
| 3 pM | {C14 diacid-γGlu}-ASELSTAALGRLSAELHELATLPRTETGPESP-NH2 [[N-terminal(C14 diacid-gGlu), des1]mimylin] |
| 9 pM | B2 |
| 17 pM | B3 |
| 6 pM | {C18 diacid}-EASELSTAALGRLSAELHELATLPRTETGSGSP-NH2 [[N-terminal(C18 diacid), 30S, 31G]mimylin] |
| 7 pM | B4 |
| 9 pM | {C20 diacid}-EASELSTAALGRLSAELHELATLPRTETGSGSP-NH2 [[N-terminal(C20 diacid), 30S, 31G]mimylin] |
| 13 pM | B5 |
| 1 pM | EASELSTAALGRLSAELHELATLPRTETGPESP-NH2 [mimylin] |
| 6 pM | B6 |
